Patent publication US20230287120A1 (ALLOGENE THERAPEUTICS, published 2023)
Where a chain is given by its changes, count along the chain named. Numbers in names are those of the source.

B1: anti-DLL3 antibody 16H7 (antibody, V domains shown)
VH: QVQLQQWGAGLLKPSETLSLTCAVFGGSFSGDYWSWIRQPPGKGLEWIGEINHSGITSFNPSLKSRVTISVDTSKNQFSLKLSSVTAADTAVYYCARGELGIPDNWGQGTLVTVSS
VL: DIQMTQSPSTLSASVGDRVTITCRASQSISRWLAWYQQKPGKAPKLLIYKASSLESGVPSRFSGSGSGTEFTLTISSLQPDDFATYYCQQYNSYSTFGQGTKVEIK
B2: anti-DLL3 antibody 2C3 (antibody, V domains shown)
VH: B1 VH with A9G, F25Y, F29S, D32N, G44R, I56T, F59Y, P103A, N105S
VL: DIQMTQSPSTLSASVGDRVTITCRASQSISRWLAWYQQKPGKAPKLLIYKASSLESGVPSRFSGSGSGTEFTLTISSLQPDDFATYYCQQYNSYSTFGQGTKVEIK
B3: anti-DLL3 antibody 11H7 (antibody, V domains shown)
VH: QVQLQQWGAGLLKPSETLSLTCAVYGGSFSAYYWNWIRQPPGKGLEWIGEINHSGSTNYNPSLKSRVTISVDTSKNQFSLNLTSLTAADTAVYYCARGLDSSGWYPFDYWGQGTLVTVSS
VL: DIQMTQSPSSVSASVGDRVTITCRASQGISSWLAWYQQKPGKAPKLLIYAASSLQSGVPSRFSGSGSGTDFTLTISSLQPEDFATYYCQQADSFPFTFGPGTKVDIK
B4: anti-DLL3 antibody 9H12-K (antibody, V domains shown)
VH: QVQLVQSGAEVKKPGASVKVSCKASGYTFTGYSIHWVRQAPGQGLEWMGWINPNSGGTFYAQKFQGRVTMTRDTSISTVYMELSRLRSDDTAVYYCARDGWGDYYYYGLDVWGQGTTVTVSL
VL: DIQMTQSPSSVSASVGDRVTITCRASQDISSWLAWYQQKPGKAPKLLIYTASSLQGGVPSRFSGSGSGTDFTLTISSLQPEDLATYSCQQANVFPYTFGQGTKLEIK
B5: anti-DLL3 antibody 4F9 (antibody, V domains shown)
VH: QVQLQQWGAGLLKPSETLSLTCAVYGGSFSGYYWTWIRQPPGKGLEWIGEITHSGSTNYNPSLKSRVSISVDTSKNQFSLKLSSVTAADTAVYYCARGEYGSGSRFDYWGQGTLVTVSS
VL: AIQMTQSPSSLSASVGDRVAITCRASQGIRDDLGWYQQKPGKAPKLLIYAASSLQSGVPSRFSGSGSDTDFTLTISSLQPEDFATYYCLQDYDYPLTFGGGTKVEIK
B6: anti-DLL3 antibody 4G9 (antibody, V domains shown)
VH: B5 VH with T35S
VL: B5 VL with I21L
B7: 10G1-K RSR (other)
CAR: GGGGSCPYSNPSLCGGGGSEVQLLESGGGLVQPGGSLRLSCAASGFTFSSYAMNWVRQAPGKGLEWVSTISGSGGSTYYADSVKGRFTISRDNSKNTLYLQMNSLRAEDTAVFYCAIDPEYYDILTGGDYWGQGTLVTVSSGGGGSGGGGSGGGGGSGGGGSDIQMTQSPSAMSASVGDRVTITCRASQGISNYLAWFQQKPGKVPKRLIYAASSLQSGVPSRFSGSGSGTEFTLTISSLQPEDFATYFCLQHDSFPLTFGGGTKVEIKGGGGSCPYSNPSLCGGGGSTTTPAPRPPTPAPTIASQPLSLRPEACRPAAGGAVHTRGLDFACDIYIWAPLAGTCGVLLLSLVITKRGRKKLLYIFKQPFMRPVQTTQEEDGCSCRFPEEEEGGCELRVKFSRSADAPAYQQGQNQLYNELNLGRREEYDVLDKRRGRDPEMGGKPRRKNPQEGLYNELQKDKMAEAYSEIGMKGERRRGKGHDGLYQGLSTATKDTYDALHMQALPPR
notes: member of group m46; also called 10G1-K RSR anti-DLL3 CAR with safety switch, on primary T cells
B8: 2G1 RSR (other)
CAR: GGGGSCPYSNPSLCGGGGSQLQLQESGPGLVKPSETLSLTCTVSGGSISSSSYYWGWIRQPPGKGLEWIGSIYYSGNIYHNPSLKSRVSISVDTSKNQFSLRLSSVTAADTAVYYCAREIIVGATHFDYWGQGTLVTVSSGGGGSGGGGSGGGGSGGGGSAIQMTQSPSSLSASVGDRVTITCRASQGIRNDLGWYQQKPGKAPELLIYAASSLQSGVPSRFSGSGSGTDFTLTISSLQPEDFATYYCLQDYNYPLTFGPGTKVDIKGGGGSCPYSNPSLCGGGGSTTTPAPRPPTPAPTIASQPLSLRPEACRPAAGGAVHTRGLDFACDIYIWAPLAGTCGVLLLSLVITKRGRKKLLYIFKQPFMRPVQTTQEEDGCSCRFPEEEEGGCELRVKFSRSADAPAYQQGQNQLYNELNLGRREEYDVLDKRRGRDPEMGGKPRRKNPQEGLYNELQKDKMAEAYSEIGMKGERRRGKGHDGLYQGLSTATKDTYDALHMQALPPR
notes: member of group m44; also called 2G1-RSR anti-DLL3 CAR with safety switch, on primary T cells
B9: 4H8 R2S (other)
CAR: GGGGSCPYSNPSLCGGGGSCPYSNPSLCGGGGSQVQLQQSGPGLVKPSQTLSLTCAISGDSVSSNSATWNWIRQSPSRGLEWLGRTYYRSKWYDDYAVSVKSRITINPDTSKNHLSLHLNSVTPEDTAVYYCAGGGLVGAPDGFDVWGQGTMVTVSSGGGGSGGGGSGGGGSGGGGSQSVLTQPPSASGTPGQRVTISCSGSSSNIGSDPVNWYQQLPGTAPKLLIYSNNQRPSGVPDRFSGSKSGTSASLAISGLQSEDEADYYCSAWDDSLNGYVFGTGTKVTVLTTTPAPRPPTPAPTIASQPLSLRPEACRPAAGGAVHTRGLDFACDIYIWAPLAGTCGVLLLSLVITKRGRKKLLYIFKQPFMRPVQTTQEEDGCSCRFPEEEEGGCELRVKFSRSADAPAYQQGQNQLYNELNLGRREEYDVLDKRRGRDPEMGGKPRRKNPQEGLYNELQKDKMAEAYSEIGMKGERRRGKGHDGLYQGLSTATKDTYDALHMQALPPR
notes: member of group m45; also called 4H8-R2S anti-DLL3 CAR with safety switch, on primary T cells
B10: 4H8 RSR (other)
CAR: GGGGSCPYSNPSLCGGGGSQVQLQQSGPGLVKPSQTLSLTCAISGDSVSSNSATWNWIRQSPSRGLEWLGRTYYRSKWYDDYAVSVKSRITINPDTSKNHLSLHLNSVTPEDTAVYYCAGGGLVGAPDGFDVWGQGTMVTVSSGGGGSGGGGSGGGGSGGGGSQSVLTQPPSASGTPGQRVTISCSGSSSNIGSDPVNWYQQLPGTAPKLLIYSNNQRPSGVPDRFSGSKSGTSASLAISGLQSEDEADYYCSAWDDSLNGYVFGTGTKVTVLGGGGSCPYSNPSLCGGGGSTTTPAPRPPTPAPTIASQPLSLRPEACRPAAGGAVHTRGLDFACDIYIWAPLAGTCGVLLLSLVITKRGRKKLLYIFKQPFMRPVQTTQEEDGCSCRFPEEEEGGCELRVKFSRSADAPAYQQGQNQLYNELNLGRREEYDVLDKRRGRDPEMGGKPRRKNPQEGLYNELQKDKMAEAYSEIGMKGERRRGKGHDGLYQGLSTATKDTYDALHMQALPPR
notes: member of group m45; also called 4H8-RSR anti-DLL3 CAR with safety switch, on primary T cells
B11: 10G1-K R2S (other)
CAR: GGGGSCPYSNPSLCGGGGSCPYSNPSLCGGGGSEVQLLESGGGLVQPGGSLRLSCAASGFTFSSYAMNWVRQAPGKGLEWVSTISGSGGSTYYADSVKGRFTISRDNSKNTLYLQMNSLRAEDTAVFYCAIDPEYYDILTGGDYWGQGTLVTVSSGGGGSGGGGSGGGGGSGGGGSDIQMTQSPSAMSASVGDRVTITCRASQGISNYLAWFQQKPGKVPKRLIYAASSLQSGVPSRFSGSGSGTEFTLTISSLQPEDFATYFCLQHDSFPLTFGGGTKVEIKTTTPAPRPPTPAPTIASQPLSLRPEACRPAAGGAVHTRGLDFACDIYIWAPLAGTCGVLLLSLVITKRGRKKLLYIFKQPFMRPVQTTQEEDGCSCRFPEEEEGGCELRVKFSRSADAPAYQQGQNQLYNELNLGRREEYDVLDKRRGRDPEMGGKPRRKNPQEGLYNELQKDKMAEAYSEIGMKGERRRGKGHDGLYQGLSTATKDTYDALHMQALPPR
notes: member of group m46; also called 10G1-K-R2S anti-DLL3 CAR with safety switch, on primary T cells
B12: 2G1 R2S (other)
CAR: GGGGSCPYSNPSLCGGGGSCPYSNPSLCGGGGSQLQLQESGPGLVKPSETLSLTCTVSGGSISSSSYYWGWIRQPPGKGLEWIGSIYYSGNIYHNPSLKSRVSISVDTSKNQFSLRLSSVTAADTAVYYCAREIIVGATHFDYWGQGTLVTVSSGGGGSGGGGSGGGGSGGGGSAIQMTQSPSSLSASVGDRVTITCRASQGIRNDLGWYQQKPGKAPELLIYAASSLQSGVPSRFSGSGSGTDFTLTISSLQPEDFATYYCLQDYNYPLTFGPGTKVDIKTTTPAPRPPTPAPTIASQPLSLRPEACRPAAGGAVHTRGLDFACDIYIWAPLAGTCGVLLLSLVITKRGRKKLLYIFKQPFMRPVQTTQEEDGCSCRFPEEEEGGCELRVKFSRSADAPAYQQGQNQLYNELNLGRREEYDVLDKRRGRDPEMGGKPRRKNPQEGLYNELQKDKMAEAYSEIGMKGERRRGKGHDGLYQGLSTATKDTYDALHMQALPPR
notes: member of group m44; also called 2G1-R2S anti-DLL3 CAR with safety switch, on primary T cells

Each binder was assayed against T1, full length human DLL3 with N-terminal HA tag, expressed on CHO cells (human, UniProt Q9NYJ7 27-618) (assay: flow cytometry on CHO cells with full length and truncated human DLL3; column Binds to DLL3 Domain).
T1 construct: also called Human DLL3 complete ECD
T1 sequence: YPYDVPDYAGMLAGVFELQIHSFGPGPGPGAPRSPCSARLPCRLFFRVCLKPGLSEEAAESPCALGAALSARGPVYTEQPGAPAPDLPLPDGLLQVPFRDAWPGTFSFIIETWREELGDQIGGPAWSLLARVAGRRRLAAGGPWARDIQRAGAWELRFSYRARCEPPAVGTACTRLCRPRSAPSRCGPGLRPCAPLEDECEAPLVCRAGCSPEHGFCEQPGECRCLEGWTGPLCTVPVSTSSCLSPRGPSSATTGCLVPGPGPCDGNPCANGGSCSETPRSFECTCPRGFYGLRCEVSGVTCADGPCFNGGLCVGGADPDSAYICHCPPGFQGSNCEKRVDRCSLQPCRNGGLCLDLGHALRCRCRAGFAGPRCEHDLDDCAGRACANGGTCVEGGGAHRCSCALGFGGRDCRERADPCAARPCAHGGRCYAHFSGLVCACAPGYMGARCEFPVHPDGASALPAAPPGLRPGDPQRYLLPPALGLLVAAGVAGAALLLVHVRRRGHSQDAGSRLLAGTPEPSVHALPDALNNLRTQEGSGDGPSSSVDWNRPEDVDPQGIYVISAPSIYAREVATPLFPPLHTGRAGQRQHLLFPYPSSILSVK
Description: The samples were analyzed by flow cytometry. […] Signals from the PE channel are shown on the x-axis and counts are shown on the y-axis.
B1: binds. B2: binds. B3: binds. B4: binds. B5: binds. B6: binds.

Each binder was assayed against T2, Flag tagged recombinant DLL3 (Adipogen) (Homo sapiens (Human), UniProt Q9NYJ7 27-492) (assay: flow cytometry, primary T cells with the CAR, Flag tagged recombinant DLL3, PE anti-Flag).
T2 construct: Bought reagent; also called Flag-DLL3
T2 sequence: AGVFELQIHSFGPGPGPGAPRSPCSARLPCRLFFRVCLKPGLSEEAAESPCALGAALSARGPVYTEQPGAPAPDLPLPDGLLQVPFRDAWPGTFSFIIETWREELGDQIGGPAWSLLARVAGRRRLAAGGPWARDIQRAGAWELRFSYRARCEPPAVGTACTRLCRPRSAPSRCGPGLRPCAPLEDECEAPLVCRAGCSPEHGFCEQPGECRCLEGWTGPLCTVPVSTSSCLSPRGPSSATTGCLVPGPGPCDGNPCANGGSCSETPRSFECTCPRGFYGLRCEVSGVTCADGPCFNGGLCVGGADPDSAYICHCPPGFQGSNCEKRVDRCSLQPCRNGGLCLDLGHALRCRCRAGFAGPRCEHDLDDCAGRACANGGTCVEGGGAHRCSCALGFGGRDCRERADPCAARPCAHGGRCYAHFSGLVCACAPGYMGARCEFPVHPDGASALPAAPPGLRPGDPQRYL
B7 was tested, and the “Rec-DLL3+ gate, percent of live CD3+ cells” value (from here on “Rec-DLL3+ gate, percent”) was 42.7%. In the case of B8, the “Rec-DLL3+ gate, percent” value is reported as 60.7%. In the case of B9, the “Rec-DLL3+ gate, percent” value is reported as 58.6%. With B10 the “Rec-DLL3+ gate, percent” value was 51.9%. In the case of B11, the “Rec-DLL3+ gate, percent” value is reported as 39.3%. In the case of B12, the “Rec-DLL3+ gate, percent” value is reported as 66%.
